Tests used:
[1] = patients with type-2 diabetes; cited from earlier work
[2] = test system: renin-angiotensin-aldosterone (RAS) proteins AGT, ACE, AT1; assay: RAS protein levels (AGT, ACE, AT1) in PTCs by Western blot; type: cell-based, human; conditions: PTCs treated, then exposed to 100 μg/ml of AOPPs (sample set D)
Protocol: (§1) Human Tubular Epithelial Cells (HUTEC) cells were cultured in DMEF/F-12 medium containing 10% fetal calf serum, penicillin (200 U/ml) and streptomycin (200 ug/ml) until confluence, and then left serum-free overnight.
In sample set D, the PTCs were treated with either copper-zinc superoxide dismutase (an […], c-SOD), one of two inhibitors of NADPH oxidase (either diphenyleneiodonium (DPI) or apocynin), a pan-PKC inhibitor (Go6983), or PKCα inhibitor (Go6976). The PTCs were then exposed to 100 μg/ml of AOPPs. The protein levels of downstream renin-angiotensin-aldosterone (RAS) proteins were measured relative to β-actin. The expression of […], ACE, and AT1 was examined by Western blot.

[3] = test system: p47phox, a subunit of NADPH oxidase; assay: Phosphorylation of p47phox in AOPP-exposed proximal tubule cells (immunoprecipitation / co-immunoprecipitation); type: cell-based, human; conditions: PTCs incubated with inhibitor before AOPP exposure (sample set B)
Protocol: as §1
In sample set B, PTCs were incubated with either a pan-PKC inhibitor (Gö6983) or PKCα inhibitor (Gö6976) before AOPP exposure. Phosphorylation of p47phox was assayed by immunoprecipitation.
In sample set F, the level of phosphorylated p47phox in PTC cells was analyzed by co-immunoprecipitation.

[4] = test system: proximal tubule cells (PTCs); assay: Intracellular ROS production in proximal tubule cells, fluorometric analysis; type: cell-based, human; conditions: PTCs pre-incubated or transfected, then exposed to AOPPs (sample set C)
Protocol: as §1
In sample set C, the PTC cells were pre-incubated with either a pan-PKC inhibitor (Gö6983), PKCα inhibitor (Gö6976), anti-RAGE antibody (a-RAGE), transfected with a CD36 siRNA (si-CD36), or both anti-RAGE antibody and transfected with CD36 siRNA (si-CD36+a-RAGE). The PTC cells were then exposed to AOPPs. Intracellular ROS production was determined by a fluorometric analysis.

[5] = test system: human microvascular endothelial cell (HMVECad); assay: Intracellular ROS production in HMVECad cells, fluorometric analysis; type: cell-based; conditions: for intracellular ROS: HMVECads exposed to modified RSA versus control unmodified RSA; for intracellular ROS production: HMVECads, 100 μg/ml for 15, 30, 60 or 120 minutes, effect of exposure time
Text: (§2) Interfering with human microvascular endothelial cell (HMVECad) SCARB1 expression or blocking the receptor using an antibody ameliorates the effect of MDA-protein or pentosidine-protein on intracellular ROS production. Cryopreserved HMVECads were purchased from Life Technologies and cultured according to the company's instructions in Medium 131 with attachment factor (M-131-500) and addition of Microvascular Growth Supplement until confluence, and then left serum-free overnight.
First, HMVECads were treated with 100 μg/ml of one of three solutions. The first solution (MDA-protein) was rat serum albumin (RSA) treated with an equimolar 1 mmol/L solution of malondialdehyde (MDA) and acetaldehyde for 3 days at 37° C. The second solution was pentosidine-RSA, prepared by incubating 0.5 mg of normal RSA with 0.1 M D-glucose in 0.5 ml of 0.1 M sodium phosphate at 37° C. for 14 days. The third solution (the control) was untreated RSA from the same batch. The HMVECads were treated for 15, 30, 60, or 120 minutes. Following the indicated time, intracellular ROS production was determined by a fluorometric analysis.
(§3) Next, the cells were pre-incubated with a polyclonal anti-SCARB1 antibody (a-SRB) or a polyclonal anti-CD36 antibody (a-CD36) or transfected with either SCARB1 siRNA (si-SRB) or CD36 siRNA (siCD36) before exposure to MDA-RSA or Pent-RSA as above. The pre-incubations were performed in various combinations. The labels beneath each set of bars indicate which pre-incubation and which exposure was made to that set. The bars labelled “NC-siRNA” were pre-incubated with scramble siRNA and exposed to untreated RSA. The dark bars are read using the left y-axis, and the white bars are read using the right y-axis.
(§4) The intracellular ROS was a proxy for NADPH oxidase activation and mitochondrial leakage, both of which are linked to cellular stress and induction of apoptosis. The phospho-PKCα measured membrane-associated PKC signalling induced by oxidation and linked to activation of NADPH oxidase and other cellular stressors.

PKCα = assay: Phospho-PKCα (membrane-associated PKC signalling, cellular stress) in HMVECad cells; type: cell-based, human; conditions: HMVECads exposed to modified RSA versus control unmodified RSA
Text: as §2
Next, the cells were pre-incubated with a polyclonal anti-SCARB1 antibody (a-SRB) or a polyclonal anti-CD36 antibody (a-CD36) or transfected with either SCARB1 siRNA (si-SRB) or CD36 siRNA (siCD36) before exposure to MDA-RSA or Pent-RSA as above. The pre-incubations were performed in various combinations. The labels beneath each set of bars indicate which pre-incubation and which exposure was made to that set. […] The dark bars are read using the left y-axis, and the white bars are read using the right y-axis.
as §4

AGT, ACE and AT1 = assay: Expression of AGT, ACE and AT1 in HMVECad cells by Western blotting; type: cell-based, human; conditions: HMVECads, 60 minutes, modified RSA versus control
Text: as §2, §3
After incubating for 60 minutes, the intracellular ROS production was again determined for the cells of FIG. 20 by a fluorometric analysis. The expression levels of AGT, ACE and AT1 were examined by Western blotting.

## CC1(C)CC[C@]2(C(=O)O)CC[C@]3(C)[C@H](C(=O)C=C4[C@@]5(C)C=C(C#N)C(=O)C(C)(C)[C@@H]5CC[C@]43C)[C@@H]2C1 [bardoxolone]
[1]
  nephroprotective effect: nephroprotective

## c1ccc2c(c1)[I+]c1ccccc1-2 [DPI, diphenyleneiodonium]
[2]
  protein levels of RAS proteins (AGT, ACE, AT1) relative to β-actin: lower levels of these proteins

## Cn1c2ccccc2c2c3c(c4c5ccccc5n(CCC#N)c4c21)CNC3=O [Gö6976, 12-(2-Cyanoethyl)-6,7,12,13-tetrahydro-13-methyl-5-oxo-5H-indolo(2,3-a)pyrrolo(3,4-c)-carbazole]
[3]
  phosphorylation of p47phox: p47phox is phosphorylated through pan-PKC or PKCα
[4]
  intracellular ROS production: Further reduction
[2]
  protein levels of RAS proteins (AGT, ACE, AT1) relative to β-actin: lower levels of these proteins

## COc1cc(C(C)=O)ccc1O [apocynin]
[2]
  protein levels of RAS proteins (AGT, ACE, AT1) relative to β-actin: lower levels of these proteins

## copper-zinc superoxide dismutase [c-SOD]
[2]
  protein levels of RAS proteins (AGT, ACE, AT1) relative to β-actin: lower levels of these proteins

B1: MDA-RSA: rat serum albumin treated with an equimolar 1 mmol/L solution of malondialdehyde and acetaldehyde for 3 days at 37° C. (protein)
chain: EAHKSEIAHRFKDLGEQHFKGLVLIAFSQYLQKCPYEEHIKLVQEVTDFAKTCVADENAENCDKSIHTLFGDKLCAIPKLRDNYGELADCCAKQEPERNECFLQHKDDNPNLPPFQRPEAEAMCTSFQENPTSFLGHYLHEVARRHPYFYAPELLYYAEKYNEVLTQCCTESDKAACLTPKLDAVKEKALVAAVRQRMKCSSMQRFGERAFKAWAVARMSQRFPNAEFAEITKLATDVTKINKECCHGDLLECADDRAELAKYMCENQATISSKLQACCDKPVLQKSQCLAEIEHDNIPADLPSIAADFVEDKEVCKNYAEAKDVFLGTFLYEYSRRHPDYSVSLLLRLAKKYEATLEKCCAEGDPPACYGTVLAEFQPLVEEPKNLVKTNCELYEKLGEYGFQNAVLVRYTQKAPQVSTPTLVEAARNLGRVGTKCCTLPEAQRLPCVEDYLSAILNRLCVLHEKTPVSEKVTKCCSGSLVERRPCFSALTVDETYVPKEFKAETFTFHSDICTLPDKEKQIKKQTALAELVKHKPKATEDQLKTVMGDFAQFVDKCCKAADKDNCFATEGPNLVARSKEALA
[5]
  intracellular ROS: caused an increase in activity compared to the control
  intracellular ROS production: greater ROS production
PKCα
  phospho-PKCα (cellular stress signalling): caused an increase in activity compared to the control
AGT, ACE and AT1
  expression levels of AGT, ACE and AT1: caused an increase in activity compared to the control

B2: Pent-RSA: prepared by incubating normal RSA with 0.1 M D-glucose in sodium phosphate at 37° C. for 14 days (protein)
chain: B1 chain
[5]
  intracellular ROS: caused an increase in activity compared to the control
  intracellular ROS production: greater ROS production
PKCα
  phospho-PKCα (cellular stress signalling): caused an increase in activity compared to the control
AGT, ACE and AT1
  expression levels of AGT, ACE and AT1: caused an increase in activity compared to the control

From patent US20150079111A1, “MECHANISM, DIAGNOSTIC, AND TREATMENTS FOR COMPLICATIONS OF RENAL FAILURE” (priority 2012, published 2015)
